The source of these data is paper PMC2932715.

Assay [1] concerns the target hemagglutinin (HA) ectodomain from A/New York/107/2003 (H7N2) (influenza A virus A/New York/107/2003 (H7N2)). The experiment in a line: SEC. (SEC sorts molecules by how far they enter the pores of the column.)
Assay [2] shares this target. The assay is described as follows: crystal structure.

As for “hemagglutinin (HA) ectodomain from A/New York/107/2003 (H7N2) (natural protein)”, the stoichiometry N in assay [1] and in assay [2] was 3 in each case.

For orientation: stoichiometry N means a count of units in the complex or per binding partner.
